Source: the nanobody polyreactivity screen of Harvey et al. (2022)

Experiment: yeast display, Sf9 membrane polyspecificity reagent, FACS + sequencing; frameworks hold sequencing errors
Outline: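 Polyreactivity labels are assigned by the sorting gate from which each nanobody was recovered. The gates were low and high (top ~1%), set on anti-HA fluorescence for expression and streptavidin fluorescence for reagent binding. Before sorting, galactose-induced (36–48 hours) yeast display cells were stained for 1 hour at 4 °C with 10% biotinylated, detergent-solubilized Sf9 membrane reagent.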

| Sequence | polyreactivity (PSR sort gate) |
| --- | --- |
| QVQLVESGGGLVQAGGSLRLSCAASGRLLGFNVMGWYRQAPGKERELVAAITTSGGSTYYADSVKGRFTISRDNAKNTVYLQMHSLKPEDTAVYYCAAVKVQITLLHGDDYWGQGTQVTVSS | high polyreactivity |
| QVQLVESGGGLVQAGGRLRLTCSASGFIIRFYAMGWYRQATGKEREFVASISRRAGRTYYADSVKGRFTISRDNAKNTVYLQMNSLKPEDTAVFYCAASGFGSFRYSSTYDYWGQGSQVTVSS | high polyreactivity |
| QVQLVESGGGLVQAGGSLRLSCAASGFISYYYAMGWYRQAPGKDWELVAVITSGGSTDYADSVKGRFTISRDHAKNTVYLQMNSLKPEDTAVYYCARDDPASHKRYWHDYWGQGTQVTVSS | low polyreactivity |
| QVQLVESGGGLVQAGGSLRLSCAASGSIFRYYAMGWYRQAPGKERELVAAISIRGGRTYYADSVKGRFTISRDNAKNTVYLQMNSLKPEDTAVYYCATAFGFTAKYYYWGQGTQVTVSS | high polyreactivity |
| QVQLVESGGGLVQAGGSLRLSCAASGRTFRDNVMGWYRQAPGKERELVAAITWSSGSTHYADSVKGRFTISRDNAKNTVYLQMNSLKPEDTAVYYCAQKYGARTKYWEGWNVRYDYWGQGTQVTVSS | low polyreactivity |
| QVQLVESGGGLVQAGGSLRISCAASGFIFGKNDMGWYRQATWKERELVAAITIGGSTNYADSVKGRFTFSRDNAKNTVYLQMNSLKPEDTAVYYCNADSYHYGTSLYNYWGQGTQLTVSS | low polyreactivity |
| QVQLVESGGGLVQAGGSLRLSCAASGRIFSINAMGWYRQAPGKERELVASISSGGSTKYADSVKGRFTISRDNAKNTVYLQMNSLKPEDTAVYYCAARGRVYRYGYWGQGTQVTVSS | high polyreactivity |
| QVQLVESGGGLVQAGGSLPLSCAASGSTFNGYAMGWYIQAPGKEWELVAVISSGGTTNYADSVKGRFTISRDNAKNTVYLQMNSLKPEDTAVYYCAADIGHRYHYRFDYWGQGTQVTVSS | low polyreactivity |
| QVQLVESGGGLVQAGGSLRLSCAASGSISYFNAMGWYRQAPGKERELVAAIDVSGDSTYYADSVKGRCTISRDNAKISLYLQMNSLKPEDTAVYYCAKDPTSWYRTFGHSYYWYDYWGQGTQVTVSS | low polyreactivity |
| QVQLVESGGGLVQAGGSLRLRCAASGNIFLSYAMGWYRQAPGKERELVAGISASGGRTYYADSVKGRFTISRDNAKNTVYLQMNSLKPEDTAVYYCATRGQTRTTTRYYSWGQGTQVTVSS | high polyreactivity |
| QVQLVESGGGLVQAGGSLRLSCAASGSIGYYAMGWYRQAPGKERELVAAIDWSGGDTYYADSVKGRFTISRDNAKNTVYLQMNSLKPEDTAVYYCAKRLYLKTCAASSADDYWGQGTQVTVSS | low polyreactivity |
| QVQLVESVGGLVQAGGSLRLSCAASGSIFRAYAMGWYRQAPGKERELVAAISRSGDSTYYADSVKGRFTISRDNAKNTVYLQMNSLKPEDTADYYCAAQRKPYVRPSGPYKRRDYWGQGTQVTVSS | high polyreactivity |
| QVQLVESGGGLVHAGGSLRLSCAASGFTFEYNAMGWYRQAPGKERELVAVITYRGGSTYYADSVKGRFTISRDNAKHTVYLQMNSLKPEDTAVYYCAADSVTYGGDYWGQGTQVTVSS | high polyreactivity |
| QVQLVESGGGLVQAGGSLRLICAASGSIFTYYTMGWYRQAPGKERELVAAIRWSAGRTYYADSVKGRFTISRDNAKNSVYLQMNSLKPEDTSVYYCAAAERLRHGLKFDYWGQGTQVTVSS | high polyreactivity |
| QVQLVESGGGLVQAGGSLRLSCAASGSILSYYVMGWYRPAPGKERELVAAITSDGSTNYADSVKGRFTISRDNAKNTVYLQMNSLKPEDTAVYYCAAVIAWYYGVQDVYYLGLYDYWGQGTQVTVSS | low polyreactivity |
| QVQLVESGGGLVQAGGSLRLSCAASGRIFQNYAMGWYRQAHGKERELVATISSGVSTYYADSVKGRFTISRDNAKNTVYLQMNSLKPEDTAVNYCAAYVPWFEMDYWGQGTQVTVSS | low polyreactivity |
| QVQIVESGAGLVQAGGSLSLSCDASGFIFVWYAMGWYRQAPGKERELVAAISWTGGSTYYADSVKGRFTISRDNAKNTVYLQINSLKPEDTAVYYCAATYEFYPEELDYWGQGTQVTVSS | low polyreactivity |
| QVQLVESGGGLVQAGGSLRLSCAASGFTFRIYAMGSYRQAPGKERELVAAISWAGGSTFYADSVKGRFTISRDNAKNTVYLQMNSLKPEDTAVYYCAADTAFHYDYWGQGTQVTVSS | low polyreactivity |
| QVQLVESGGGLVQAGGSLRLSCAASGRTFYNAMGWYRQAPGKERELVAAITTGGGTKYADSVKGRFTISRDNAKNTVYLQMNSLKPEDTAVYYCNAYRQYRYDYWGQGTQVTVSS | low polyreactivity |
| QVQLVESGGGLVQAGGSLRLSCAAAGRSFGRNAMGWYRQAPGKERELVAAISTSSGSTYYADSVKGRFTISRDNAKNTVYLQMNSLKPEDTAGYYCAARDDSYRRYEYGYWGQGTQVTVSS | high polyreactivity |
| QVQLVESGGGLVQAGGSLRLSCAASGRTFVGYAMGWYRQAPGKERELVAAISRTGGSTYYADSVKGRFTISRDNAKNTVYLQMNSLKPEDTAVYYCAASPKRVLRESGDYWGQGTQVTVSS | high polyreactivity |
| QVQLVESRGGLVQAGGSLRLSCSASGIIFEYYAMGWYRQAPGKERELVAAISSDTSTNYADSVKGRFTISRDNAKNTVYLQMNSLKPEDTAVYYCNADAYYDTYGICVGTDYDYWGQGTQVTVSS | low polyreactivity |

| Sequence | polyreactivity (PSR sort gate) |
| --- | --- |
| QVQLVESGGGLVQAGGRLRLSCAASAFIFVTYAMGCYRQAPGKERELVAAITNSGGTTYYADSVKGRFTISRDNAKNTVYLQMNSLKPEDTAVYYCNTEDFFNVPEMDSWGQGTQVTVSS | low polyreactivity |
| QVQLVESGGGLVQAGGSLRLSCAASGRTFIRNAMGWYRQAPGKERELVASIRRSGGSTYYADSVKGRFTISRDNAKNTVYLQMNSLKPEDTAVYYSAAVHRFLLGYGYWGQGTQVTVSS | high polyreactivity |
| QVQLVESGGGLVQAGGSLRLSCAASGRTFIIYAMGWYRQAPGKERELVATISIGGSTYADSVKGRFTISRDNAKNTVYLQMNSLKPEDTAVYYCAARGRKYPPRDYWGQGPQVTVSS | high polyreactivity |
| QVQLVESGGGLVQAGGSLRLSCAASGIIFSFYAMGWYRQAPGKERELVAAISRSGGSTYYADSVKGRFTISRDNAKNTVYLQMNSLKPEDTAVYYCNADNGASYYYRRYDSWGQGTQVTVSS | high polyreactivity |
| QVQLVESGGGLVQAGGSLRLSCAASGFIFRYYAMGRYRQAPGKERELVAAISYSGGSTYYADSVKGRFTFSRDNAKNTVYLQINSMKPEDTAVYYCAKYTTSVYKQSLQQGYDYWGQGTQVSVSS | high polyreactivity |
| QVQLVESGGGLVQAGGSLRLSCAASGSIFVKNAMGWYRQAPGKERELVATISRRGGSTYYADSVKGRFTISRDNAKNTVYLQMNSLKPEDTAVYYCNRLGTTVSLEYYYWGQGTQVTVSS | high polyreactivity |
| QVHLVESGGVLVQAGGSLRLSCAASGSIFAKYAMGWYRQAPGKERELVAAISRSSVRTRYADSVKGRFTISRDNAKNTVYLQMNSLKPADTAVYYCNAYYRSYAYSHLDYWGQGTQVTVSS | high polyreactivity |
| QVQLVESGGGLVQAGGSLRLSCAASGSIFQKYAMGWYRPAPGKERELVAAITSSGSTNYADSVKGRFTISRDNAKNTVYLQMNSLKPEDTAVYYCAADRYAGYYSWYYPLWSSKDDYWGQGTQVTVSS | low polyreactivity |
| QVQLVESGGGLVQAGGSLRLSCAASGFTFVAYAMGWYRQAPGKERELVAAISKSGGNTYYADSVKGRFTISRDNAKNTVYLQMNSLKPEDTAVYYCAAPRRYAWGQVNYWGQGTQVTVSS | high polyreactivity |
| QVQLVESGGGLVQAGGSLRISCAASGLTFYVYAMGWYRPAPGKERELVAAISGRGGRTYYADSVKGRFTISRDNAKNTVYLQMNSMKPEDTAVYYCAARYPRYRYVEYGYNYWGQGTQVTLSS | high polyreactivity |
| QVQLVESGGGLVQAGGSLRLSCAASGSTFGGNAMGWYRQAPGKERELVAAISSSGGSTYYADSVKGRFTISRDNAKNTVYLLMNSLKPEDTAVYYCNADDGYGQVHSISTYEMDYWGQGTQVTVSS | low polyreactivity |
| QVQLVESGGGLVQAGGSLRLSCAASGRTFFSNAMGWYRQAPGKERELVAVIDSGGSTYYADSVKGRFTISRDNAKNTVYLQMNSLKPEDTAVYYCAADTGTAPSEDYLGQGTQVTVSS | low polyreactivity |
| QVQLVESGGGLVQAGGSLRLSCAASGRTFRQYAMGWYRQAPGKERELVATISGGGGNTYYADSVKGRFTISRDNAKNTVYLQMNSLKPEDTAVYYCAARRRDRPVRGYDYWGQGTQVTVSS | high polyreactivity |
| QVQLVESGGGLVQAGGSLRLSCAASGRIFGSYVMGWYRQAPGKERELVAAISRRGGSTYYADSVKGRFTISRDNAKNTVYLQMNSLKPEDTAVDYCAAEFSPSSNPYDYWGQGTQVTVSS | high polyreactivity |
| QVQLVESGGGLVQAGGSLRLSCAASGSTFWANAMGWYRQAPGKEREIVATISWSDGSTYYAASVKGRFTISRDNAKNTVYLQRNSLNPEDTAVYYCASDVVRFFTYKYDDWGQGTQVTVSS | low polyreactivity |
| QVLLQESGGGLVQAGGSLRLSCASSGTISTDIRMGWYRLAPGKEREFVASIDGCSTTYYADSVKGRFSISRDNAKNTVYLQMNSLKPEDTSMYYCAAREATEFYLYYWGQGTQVTVSS | low polyreactivity |
| QVQLVESGGGLVQAGGSLRLSCAASGSTFQTYAMGWYRQAPGKERELVAAITSGGSTNYADSVKGRFTISRDNAKNTVYLQMNSLKPEDTAVYYCAVRQIYQTSDHRLQYDYWGQGTQVTVSS | low polyreactivity |
| QVQLVESGGGLVQAGGSLRLSCAASGFIIGSYAMGWYRQAPGKERELVAAISRRTTNTYYADSVKGRFTISRDNAKNTVYLQMNSLKPEDTAVYYCARVTWYESDYWGQGTQVTVSS | high polyreactivity |
| QVQLVESGGGLVQAGGSLRLSCAASGRTFDPNAMGWYRQAPGKERELVAAIRWTGTSTYYADSVKGRFTISRDNAKNTVYLQMNSLKPEDTAVDYCNARGSYRLRYDYWGQGTQVTVSS | high polyreactivity |
| HVQHVESGGGLVQAGGSLRVSCAASGSTFYYNAMGWYRQAPGKERELVARISRSGASTYYADSVKGRFTISRDIAKNSVYLQMNSLKPEDTAVYYCATRNLGHERWYYYWGQGTQVTVSS | high polyreactivity |
| QVQLVESGGGLVQAGGSLRLSCAASGFTFYYYAMGWYRQAPGKERELVAAISSSGGSTSYADSVKGRFTISRDNAKNTVYLQMNSLKPEDTAVYYCAAVYWQSGRGKMCYWGQGTQVTVSS | high polyreactivity |
